From article PMC10714925 come the findings set out here.

This data set concerns Clp-GST (Xanthomonas oryzae pv. oryzae PXO99A). Briefly: MST. The settings on record: MST: 50 mM Tris pH 7.5, 150 mM NaCl, 10 mM MgCl2, 0.05% Tween 20, 25 C, buffer not given.

xanfur promoter, FAM-labeled returned a Kd of 0.687 nM.
